Measured values taken from PMC8602281 (Nature Communications, 2021).

Molecular target: receptor-binding domain (RBD) of SARS-CoV-2 (SARS-CoV-2, UniProt P0DTC2)
Test: SPR
Conditions: both partners purified

B1: trastuzumab Fab with LCB1 insertion (Fab)
VH: EVQLVESGGGLVQPGGSLRLSCAASGFNIKDTYIHWVRQAPGKGLEWVARIYPTNGYTRYADSVKGRFTISADTSKNTAYLQMNSLRAEDTAVYYCSRWGGDGGSDKEWILQKIYEIMRLLDELGHAEASMRVSDLIYEFMKKGGSGFYAMDYWGQGTLVTVSS
VL: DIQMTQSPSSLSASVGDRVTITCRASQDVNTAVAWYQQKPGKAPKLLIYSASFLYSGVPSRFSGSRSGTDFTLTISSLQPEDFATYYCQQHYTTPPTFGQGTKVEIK
notes: also called trast-LCB1; trastuzumab +LCB1
With B1 as the binder, how does the Kd read?
Its Kd is 0.9 nM.
